# Experimental data published in the supplement of paper PMC9170038.
# System: K4 kissing-loop RNA reporter
# Test: apparent KD of K4 kissing-loop reporter; higher = weaker reporter binding
# Settings: Eterna round: R107; input ligand: theophylline 20 uM
# Protocol: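 RNA-MaP round R107: designed RNA switches with theophylline, tryptophan, arginine or FMN aptamers are transcribed on-chip within common flanks. They are titrated with a labelled K4 kissing-loop RNA reporter in RNA-MaP buffer (100 mM Tris pH 7.5, 80 mM KCl, 4 mM MgCl2), without ligand or with the indicated ligand. Median apparent KD per design.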
# 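Note: bound reporter read as fluorescence of individual clusters on recovered sequencing chips by microscopy, with normalized cluster intensities fitted with a binding model.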
row,Sequence,apparent KD of K4 kissing-loop reporter
1,AUAAACUUGCAGUGAUGUUGCAAGUAAGACUAGGAUAUCAGGAAACUGAGAAGGAGUCAUCUCCUUCACUUGCAACUAGGAGGAG [[K1]-[K2]-[F1]-[F2]-[F]'-[K]'-[F]''_Design6],144 nM
2,GAUGGUGGCAGUGAAGUGAUGUUUCAUGAUACCAGUUUUAUAAGUAACCCUUGGCAGCAUCGUACGCAGCGUAGUGGACAUCACG [theeternabot_exclusion_KL_Theo_A_25],241 nM
3,UGUUAUGUAUCAGGAUAUUAGUGAUGUUUGUUUAUGUUAGUGAUGUUGAUAUUUGUUUUAUGUAUUUAAGAAGGGAUUGAGAUGU [dcdmullin],27.7 nM
4,GCAGGACGAUGAGGAGGAUGAAUUACUGAAGGAGCGCAUAUGGUUGCAGGUAGGUCGCGGUGAACAAGUAUAGUGAUGUUAUAUC [SSArgA.R],471 nM
5,AAACGUUGGUGCGAUACCAGCUUGCGCGGAAAACGCGCUACUGGAGUGAUGUUCCUAAAUAGCCCUUGGCAGCGCACCGACGAAA [MAT - Same State Theophlline B - Mod of Eli - D9],107 nM
6,UUACAGCCCAGUGAUGUUGGGUAGCGGCGGCGAGGACCGGUACGGCCGCCACUCGGCGCACAGGCGGAGUGAUGUUUUGCUUAAA [Same State Tryptophan A GF 11],927 nM
7,UAUUUAGUGACGGCCGCCACUAUUGUGAUUUAUUUGUUUGAGUGAUGUUUUGAUGUUUGAUUUUGUAGGACCGGGUUAUGUGUUA [awscmullin],804 nM
8,UACUAUAGUGAUGUUAUAGAUAAAACAGAUACCAGUGUAACAUAACACCCUUGGCAGCUGAUAAGGGAAAGUAUAAAUGUGUAUU [AstrosSSTHe-A#2newdesignED],208 nM
9,AAUAAAAUCACGGCCGCCACUGAUACUAAUAUUAGCAGUGAUGUUGCUAUGUAUAAUUUAUUAAACAGGACCGGGUGAAUAUUUA [JR_ExcTryptoB_Sub015],150 nM
10,GCCGUACGCAUGGAUACCAGCACUCGUUGAGUGAUGUUCACGAGGUGGUAUUCGACGGGCUGCCCUUGGCAGCCAUGCGUACGGC,99 nM
11,GUAAUCUUGCUCGAGUGAUGUUCGAGCGAAGGAGCGCGAGAAAUCGCAGGUAGGUCGCGCUCGAAAUAUGAGCGAACAAUUAUUA [Arg A Ex t2b],219 nM

# Same assay, conditions: Eterna round: R107; input ligand: tryptophan 2.4 mM
row,Sequence,apparent KD of K4 kissing-loop reporter
1,CAGACAUGCGGUAGGUUCAAGCGCUGGGAAGGAGCGCAGAUGACUGCAGGUAGGUCGCCCAGUGAUGUUGGGCUUUCCACCUAUG [Onbeenbi],107 nM
2,CAUACGCAUGGAGGAUAUGAGAUUACUCAUAUCAUUUAAUAUUCUCAGUGAUGUUGAGAUUUAGACUCAGAAGGCCAUGUGUAUG [Ex FMN B 13],317 nM
3,CGUUUAUAGCAGGAUACCAGUACCCAUUAUGUACGUUUAUAGUAGAGUGAUGUUCUAAAGUACCCUUGGCAGCUUCCCGUGACCC [ExTheophylB.Z],85.4 nM
4,GCCGUACGCAUGGAUACCAGCAGAACUGCCCUCCCAGUGAUGUUGGGAGGAUCUUUCCUAUGCCCUUGGCAGCCAUGCGUACGGC,117 nM
5,GCGAACAUUCGCAGUGAUGUUGCGACGGAAGGAGCGCGUGAAAACGCAGGUAGGUCGCCGACAACAUUAAUUUUAAUGUGUUCGC [Arginine A K4 28],256 nM
6,AGUGGACGUGUUCGGAGUGAUGUUCCGGAUACCAGACACGAAAGUGUCCCUUGGCAGCCGGAGUGAUGUUCCGGCGUUCACUAAA [Omei KL Theo A Exc B v2],439 nM
7,UAAUAAAUUCUGGCAAUGUCACUCUUCGAAGGAGCGGACGAAAGUCCAGGUAGGUCGCGAAGAGUGAUGUUCUUCGCGGCGCCAG [Omei KL Arginine A Exc A v1],268 nM
8,UCGAUAGCCAGCGAUACCAGCCCAGUGAUGUUGGGCACAUGGUUGCGGGAAAUCCUAUUGGGCCCUUGGCAGCGCUUGCAUGGGU [Anbixeza],110 nM
9,GGUAGCAUGGCGGCCGCCACUUGCACUCGUCUUGCAUAUUGGCCUAUGAUAGUAGUGAUGUUACUAAGGACCGGGCCAUGCUACC,255 nM
10,UUUUUAUGCAGUGAUGUUGCUAAUAUAACAGAGGAUAUGCAUUAAAGCAGAAGGCUGAAAUACUAUACUUUAAUAAAUUAAAUUU [JR_SSFMNA_Sub013],82.7 nM
11,UGUCAUUGGUCGGCCGCCACUAUAAUAAAAGAGUGAUGUUCUAAAAGACGGACAAAAGUCUGUCGUAGGACCGGGACCGAUGACU [TrypBS 26 #SwitchBubble #StaticStem],455 nM
12,CGCAGUGAUGUUGCUUUUAUUCUUGGUUAACGAGGACCGGUACGGCCGCCACUCGAUUUCUAUCUAUUCCAGUGUUUUUUUGAGU [JR_ExcTryptoA_Sub004],195 nM
13,AGUUCAGAGUGACUCGAUAAGAGUCACAAACGAGGACCGGUACGGCCGCCACUCGAAAUAACGAGAGUGAUGUUCUCGCUGGGCA [FiskerMod 2 - Jieux - Same State Tryptophan A],244 nM
14,GUCUGCGUCUCGGCCGCCACUCACUAGUGAUGUUAGUAAGGAGCGACUAGCGCAGUCCUGAAGAUGAGGACCGGGAGACGCAGGA [Exclusion Tryptophan B GF5],358 nM
15,UCCUGCACGGUCGAUACCAGCCUAUGCAGUGAUGUUGUAAGGUUGUCACUUUAGUACGAAGGCCCUUGGCAGCGAUGAUGUAACA [theeternabot_exclusion_KL_Theo_B_41],464 nM
16,UACACGACUCGUGUAAACCGAGGUAACAGGCAGGAUAUGUAACGGAACAGAAGGGCCAUGUAGCGUGUCCAGUGAUGUUGGAUGC [Betilare],173 nM
17,ACGAUCAUGUCGGCCGCCACUGAGAGUAGUGAUGUUACUCUUUUCCUUUAGUUAUUAUAUUUUAUCAGGACCGGGACAUGUUCGU [JR_ExcTryptoB_Sub022],77.9 nM
18,UGAUACCAGACGGCCGCCACUCUUGCAGUCAAAGACUGCUAAAAGGAAAUCGUCCAGUGAUGUUGGAGGACCGGGUCUGGUAUCU [TrypBX 15 #SwitchBubble #Palindromic #StaticStem],736 nM
19,AUACGUUUCAGAGGAUAUCGGAGGAGAGUGAUGUUCUCCCAUAGCCCAGUGAUGUUGGAAGCUAUCCGAGAAGGCUGUGGGCGUA [Same State FMN B GF 15],179 nM
20,AAAGCAUUGAGAAGGAGCGUGUCGUGGAGUGAUGUUCCAUUGUAGACCUAAGGUCUACAAGCACAGGUAGGUCGCUCAUUGCUAA [JR_Nu_SSArginiB_Sub023],156 nM
21,AAUACGCCGAAAGGAUAUAUAGAACAUCAAGGGCGCUGACUUUGCUAAAUCACAAGUGAUGUUUGUAUAGAAGGUUCGCAGUCAA [theeternabot_exclusion_KL_FMN_B_30],437 nM
22,AGACUACUGAUAGGAUAUAACAUCCUAGUCGUAUACCGAAAGGUAUACGAAACCCUUCUAGUGAUGUUAGAAGGGUCGGUAGUCA [Omei KL FMN B Exc B v9],69.4 nM

row,Sequence,apparent KD of K4 kissing-loop reporter
1,UCCAGGAAUCAUGUCGUAGUGAUGUUAUGACGAGGACCGGUACGGCCGCCACUCGUCGUGGCCGGUUCUGAGGGCUAAUCUCUCA [theeternabot_exclusion_KL_Trp_A_34],632 nM
2,UUCCUCAUGGUAGUGAUGUUGCCGCCCGAUACCAGUCGACGUAUUGACCCUUGGCAGCGGAUCAAGUCCGAUUAAUUUUUUGGUC [theeternabot_sameState_KL_Theo_A_5],196 nM
3,AAAACUAUCAGAAGGAGCGUGGAAUAUUCAUCUGUAUCUAAUACGAGUGAUGUUCGUAAUUCACAGGUAGGUCGCUGAUCAAUAA [whbob_Ex_Arginine_B_2th155],241 nM
4,AUCGUUGUCUGAGGAUAUCGGUUAUCUGUAGUGAUGUUACAGUAUAUUCAUAUUAUACUUUCUAUUCGAGAAGGCAGACUACGUA [JR_Nu_ExcFMNB_Sub020],82.9 nM
5,CCAUCGCUAUUCGAUACCAGCCAAGAGGUCUUUGGCCUCUUAAUGGAGUGAUGUUCCAUUGGCCCUUGGCAGCGAAUAGUGAUGG [Theophylline B K4 18],798 nM
6,AGGCACGAGCAAGGAUAUUGAGUAGAGUGAUGUUCUGCCUGGGUUGGCUCGUAAGAGCCUUCUCAGCGAGAAGGUGCUCGUGCCU [#2 Same State - FMN A Attempt #23 (HarryS)],636 nM
7,GGAUCUGCCAGUGAUGUUGGUUAAUAUAUCAAGGAUAUGACGAAAGUCAGAAGGUGAAAGACUGGACAAAGUCCAGUCGGAUCCA [KL-SSFMN-A20],270 nM
8,CCUAUCUCAUACGAUACCAGUGAAAUAAUAUUUAUAAGCAGUGAUGUUGCAUUCCAAGAACACCCUUGGCAGCGUAUGGGAUAGG [Ex Theophylline B K4 19],143 nM
9,CGAGUGAUGUUCGUUUUUUAAUUUUUUUGACAGGAUAUGCGGAAACGCAGAAGGGUCACCUUUGAGUUAAAAGAAUUUAUUUUUU [Ex FMN A 17],199 nM
10,AUAAACUUGCAGUGAUGUUGCAAGUAAGACUAGGAUAUCAGGAAACUGAGAAGGAGUCAUCUCCUUCACUUGCAACUAGGAGGAG [[K1]-[K2]-[F1]-[F2]-[F]'-[K]'-[F]''_Design6],133 nM
11,GAUGGUGGCAGUGAAGUGAUGUUUCAUGAUACCAGUUUUAUAAGUAACCCUUGGCAGCAUCGUACGCAGCGUAGUGGACAUCACG [theeternabot_exclusion_KL_Theo_A_25],149 nM
12,UGUUAUGUAUCAGGAUAUUAGUGAUGUUUGUUUAUGUUAGUGAUGUUGAUAUUUGUUUUAUGUAUUUAAGAAGGGAUUGAGAUGU [dcdmullin],50.9 nM
13,GCAGGACGAUGAGGAGGAUGAAUUACUGAAGGAGCGCAUAUGGUUGCAGGUAGGUCGCGGUGAACAAGUAUAGUGAUGUUAUAUC [SSArgA.R],1050 nM
14,AAACGUUGGUGCGAUACCAGCUUGCGCGGAAAACGCGCUACUGGAGUGAUGUUCCUAAAUAGCCCUUGGCAGCGCACCGACGAAA [MAT - Same State Theophlline B - Mod of Eli - D9],170 nM
15,UUACAGCCCAGUGAUGUUGGGUAGCGGCGGCGAGGACCGGUACGGCCGCCACUCGGCGCACAGGCGGAGUGAUGUUUUGCUUAAA [Same State Tryptophan A GF 11],476 nM
16,UAUUUAGUGACGGCCGCCACUAUUGUGAUUUAUUUGUUUGAGUGAUGUUUUGAUGUUUGAUUUUGUAGGACCGGGUUAUGUGUUA [awscmullin],708 nM
17,UACUAUAGUGAUGUUAUAGAUAAAACAGAUACCAGUGUAACAUAACACCCUUGGCAGCUGAUAAGGGAAAGUAUAAAUGUGUAUU [AstrosSSTHe-A#2newdesignED],186 nM
18,UUCUACGAGUGAUGUUCGUAGUGUAAUAGCUAGGAUAUCGUUUUUUCGAGAAGGAGCUUCGAAGUGAUACGAAAGUAUCGCUUCG [FMN A 12],264 nM
19,AAUAAAAUCACGGCCGCCACUGAUACUAAUAUUAGCAGUGAUGUUGCUAUGUAUAAUUUAUUAAACAGGACCGGGUGAAUAUUUA [JR_ExcTryptoB_Sub015],114 nM
20,GCCGUACGCAUGGAUACCAGCACUCGUUGAGUGAUGUUCACGAGGUGGUAUUCGACGGGCUGCCCUUGGCAGCCAUGCGUACGGC,121 nM
21,GUAAUCUUGCUCGAGUGAUGUUCGAGCGAAGGAGCGCGAGAAAUCGCAGGUAGGUCGCGCUCGAAAUAUGAGCGAACAAUUAUUA [Arg A Ex t2b],230 nM
